We go through one substance from article doi:10.1101/322719.

The target of this experiment is Kaposi's sarcoma-associated herpesvirus (KSHV) ORF68 protein (Kaposi's sarcoma-associated herpesvirus (KSHV)). Description: SEC. For orientation: In gel filtration, larger molecules generally elute earlier.

For orientation: stoichiometry N means the number of molecules, sites or subunits per partner or assembly. Consider “Kaposi's sarcoma-associated herpesvirus (KSHV) ORF68 protein (natural protein)”, for which the stoichiometry N came out at 5.
